Assay [1] deals with T1, tau:nYFP (UniProt P10636-8 1-441).
T1 construct: microtubule associated protein tau; Plasmids and their construction are in Supplementary file 2; also called nYFP-tau; tau fused to an N-terminal moiety of YFP
The experiment in a line: split reporter (BiFC, NanoBiT); split-YFP; stable cell lines with α-Syn or tau fused to the N-terminal portion of YFP (bait), transfected with 250 ng prey plasmid with the C-terminal portion of YFP; fluorescence by flow cytometry at 48 hr and microscopy up to 72 hr. To be noted: partners not purified. (Flow cytometry measures light scatter and fluorescence of single cells or particles in a stream.)

The target in assay [2] is α-Syn:nYFP (UniProt P37840 1-140). The assay is described as above. To be noted: partners not purified.

T1 sequence (P10636 other isoform, or with tags, fused parts or gaps): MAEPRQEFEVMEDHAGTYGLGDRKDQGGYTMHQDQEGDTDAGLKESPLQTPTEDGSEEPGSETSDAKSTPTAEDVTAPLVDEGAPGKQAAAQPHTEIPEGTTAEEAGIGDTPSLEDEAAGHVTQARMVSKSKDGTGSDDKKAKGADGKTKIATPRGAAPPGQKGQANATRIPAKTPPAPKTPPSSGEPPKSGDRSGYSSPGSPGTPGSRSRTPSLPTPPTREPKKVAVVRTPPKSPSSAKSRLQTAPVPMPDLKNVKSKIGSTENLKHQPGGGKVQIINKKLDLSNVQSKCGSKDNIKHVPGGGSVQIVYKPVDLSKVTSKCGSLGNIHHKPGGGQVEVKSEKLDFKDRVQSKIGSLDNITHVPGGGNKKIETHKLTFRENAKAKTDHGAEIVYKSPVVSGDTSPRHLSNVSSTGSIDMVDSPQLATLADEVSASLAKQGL

B1: TRIM28:cYFP (natural protein, human, UniProt Q13263 1-835, looked up)
chain: MAASAAAASAAAASAASGSPGPGEGSAGGEKRSTAPSAAASASASAAASSPAGGGAEALELLEHCGVCRERLRPEREPRLLPCLHSACSACLGPAAPAAANSSGDGGAAGDGTVVDCPVCKQQCFSKDIVENYFMRDSGSKAATDAQDANQCCTSCEDNAPATSYCVECSEPLCETCVEAHQRVKYTKDHTVRSTGPAKSRDGERTVYCNVHKHEPLVLFCESCDTLTCRDCQLNAHKDHQYQFLEDAVRNQRKLLASLVKRLGDKHATLQKSTKEVRSSIRQVSDVQKRVQVDVKMAILQIMKELNKRGRVLVNDAQKVTEGQQERLERQHWTMTKIQKHQEHILRFASWALESDNNTALLLSKKLIYFQLHRALKMIVDPVEPHGEMKFQWDLNAWTKSAEAFGKIVAERPGTNSTGPAPMAPPRAPGPLSKQGSGSSQPMEVQEGYGFGSGDDPYSSAEPHVSGVKRSRSGEGEVSGLMRKVPRVSLERLDLDLTADSQPPVFKVFPGSTTEDYNLIVIERGAAAAATGQPGTAPAGTPGAPPLAGMAIVKEEETEAAIGAPPTATEGPETKPVLMALAEGPGAEGPRLASPSGSTSSGLEVVAPEGTSAPGGGPGTLDDSATICRVCQKPGDLVMCNQCEFCFHLDCHLPALQDVPGEEWSCSLCHVLPDLKEEDGSLSLDGADSTGVVAKLSPANQRKCERVLLALFCHEPCRPLHQLATDSTFSLDQPGGTLDLTLIRARLQEKLSPPYSSPQEFAQDVGRMFKQFNKLTEDKADVQSIIGLQRFFETRMNEAFGDTKFSAVLVEPPPMSLPGAGLSSQELSGGPGDGP
notes: Tripartite motif-containing 28 (TRIM28); Plasmids and their construction are in Supplementary file 2; also called TRIM28 fused to a C-terminal moiety of YFP; Prey
As to B1, the “fold lower BiFC signal than with tau as prey” value in assay [1] and in assay [2] was roughly 8 fold each time.
